{
  "source": "FireProtDB (doi:10.1021/bi00458a027)",
  "proteins": {"B1": {"name": "Tryptophan synthase alpha chain wild type, P0A877 (protein)", "chain": "MERYESLFAQLKERKEGAFVPFVTLGDPGIEQSLKIIDTLIEAGADALELGIPFSDPLADGPTIQNATLRAFAAGVTPAQCFEMLALIRQKHPTIPIGLLMYANLVFNKGIDEFYAQCEKVGVDSVLVADVPVEESAPFRQAALRHNVAPIFICPPNADDDLLRQIASYGRGYTYLLSRAGVTGAENRAALPLNHLVAKLKEYNAAPPLQGFGISAPDQVKAAIDAGAAGAISGSAIVKIIEQHINEPEKMLAALKVFVQPMKAATRS"}},
  "details": "Escherichia coli (strain K12), pH 7.8, Urea, CD, Potassium phosphate 10 mM, whole UniProt chain shown",
  "note": "Values joined by “and” are separate entries in the source; they are usually repeats but may differ in a detail not shown here. Equal values may be shown once.",
  "data": [
    {"protein": "B1", "values": [
      {"measurement": "denaturant m value", "setting": "4 °C", "value": "3.1 kcal/mol/M and 1.9 kcal/mol/M"},
      {"measurement": "denaturant midpoint (higher = more stable)", "setting": "4 °C", "value": "1.63 M and 3.17 M"},
      {"measurement": "unfolding free energy", "setting": "4 °C", "value": "5 kcal/mol and 6 kcal/mol"},
      {"measurement": "denaturant m value", "setting": "25 °C", "value": 1.2, "unit": "kcal/mol/M"},
      {"measurement": "denaturant midpoint (higher = more stable)", "setting": "25 °C", "value": 4.18, "unit": "M"},
      {"measurement": "unfolding free energy", "setting": "25 °C", "value": 5, "unit": "kcal/mol"}
    ]}
  ]
}
